B1: h763.74(#5)CD28 CAR (protein, not shown: large carriers)
chain: MEIVMTQSPSTLSASVGDRVIITCRASQTIYKNLHWYQQKPGKSPKLLIKYGSDSISGVPSRFSGSGSGTEYTLTISSLQPDDFATYYCLQGYSTPWTFGQGTKLTVLGGGGGSGGGGSGGGGSGGGGSQVQLVESGGGLVQPGGSLRLSCTASGYTFTDYSMHWVRKAPGKGLEWVGWINTATGEPTYADDFKGRFTISLDTSKNTVYLQMNSLRAEDTAVYFCASYYDYWGQGTLVTVSS
B2: 763.74(A)4-1BB CAR (protein, not shown: small tags and cut ends)
chain: MQVKLKESGPELKKPGETVKISCKASGYTFTDYSMHWVKKTPGKGLKWLGWINTATGEPTYADDFKGRFAISLETSARTVYLQINNLRNEDTATYFCFSYYDYWGQGTTVTVSSGGGGSGGGGSGGGGDIKLSQSPSILSVTPGETVSLSCRASQTIYKNLHWYQQKSHRSPRLLIKYGSDSISGIPSRFTGSGSGTDYTLNINSVKPEDQGIYYCLQGYSTPWTFGGGTKLEIK
B3: 763.74(A)CD28 CAR (protein, not shown: small tags and cut ends)
chain: MQVKLKESGPELKKPGETVKISCKASGYTFTDYSMHWVKKTPGKGLKWLGWINTATGEPTYADDFKGRFAISLETSARTVYLQINNLRNEDTATYFCFSYYDYWGQGTTVTVSSGGGGSGGGGSGGGGDIKLSQSPSILSVTPGETVSLSCRASQTIYKNLHWYQQKSHRSPRLLIKYGSDSISGIPSRFTGSGSGTDYTLNINSVKPEDQGIYYCLQGYSTPWTFGGGTKLEIK
B4: h763.74(#2)CD28 CAR (protein, not shown: large carriers)
chain: MDIKLTQSPSILSASVGDRVIITCRASQTIYKNLHWYQQKPHRSPRLLIKYGSDSISGIPSRFSGSGSGTEYTLTISSLQPDDFAIYYCLQGYSTPWTFGGGTKLTVLGGGGGSGGGGSGGGGSGGGGSQVQLVESGGGLVQPGGSLRLSCTASGYTFTDYSMHWVRKTPGKGLKWVGWINTATGEPTYADDFKGRFTISLDTSKNTVYLQMNSLRAEDTATYFCFSYYDYWGQGTTVTVSS

Biological target: chondroitin sulfate proteoglycan 4 (CSPG4) (human) (UniProt Q6UVK1)
Chain of UniProt Q6UVK1 (Q6UVK1 30-2322): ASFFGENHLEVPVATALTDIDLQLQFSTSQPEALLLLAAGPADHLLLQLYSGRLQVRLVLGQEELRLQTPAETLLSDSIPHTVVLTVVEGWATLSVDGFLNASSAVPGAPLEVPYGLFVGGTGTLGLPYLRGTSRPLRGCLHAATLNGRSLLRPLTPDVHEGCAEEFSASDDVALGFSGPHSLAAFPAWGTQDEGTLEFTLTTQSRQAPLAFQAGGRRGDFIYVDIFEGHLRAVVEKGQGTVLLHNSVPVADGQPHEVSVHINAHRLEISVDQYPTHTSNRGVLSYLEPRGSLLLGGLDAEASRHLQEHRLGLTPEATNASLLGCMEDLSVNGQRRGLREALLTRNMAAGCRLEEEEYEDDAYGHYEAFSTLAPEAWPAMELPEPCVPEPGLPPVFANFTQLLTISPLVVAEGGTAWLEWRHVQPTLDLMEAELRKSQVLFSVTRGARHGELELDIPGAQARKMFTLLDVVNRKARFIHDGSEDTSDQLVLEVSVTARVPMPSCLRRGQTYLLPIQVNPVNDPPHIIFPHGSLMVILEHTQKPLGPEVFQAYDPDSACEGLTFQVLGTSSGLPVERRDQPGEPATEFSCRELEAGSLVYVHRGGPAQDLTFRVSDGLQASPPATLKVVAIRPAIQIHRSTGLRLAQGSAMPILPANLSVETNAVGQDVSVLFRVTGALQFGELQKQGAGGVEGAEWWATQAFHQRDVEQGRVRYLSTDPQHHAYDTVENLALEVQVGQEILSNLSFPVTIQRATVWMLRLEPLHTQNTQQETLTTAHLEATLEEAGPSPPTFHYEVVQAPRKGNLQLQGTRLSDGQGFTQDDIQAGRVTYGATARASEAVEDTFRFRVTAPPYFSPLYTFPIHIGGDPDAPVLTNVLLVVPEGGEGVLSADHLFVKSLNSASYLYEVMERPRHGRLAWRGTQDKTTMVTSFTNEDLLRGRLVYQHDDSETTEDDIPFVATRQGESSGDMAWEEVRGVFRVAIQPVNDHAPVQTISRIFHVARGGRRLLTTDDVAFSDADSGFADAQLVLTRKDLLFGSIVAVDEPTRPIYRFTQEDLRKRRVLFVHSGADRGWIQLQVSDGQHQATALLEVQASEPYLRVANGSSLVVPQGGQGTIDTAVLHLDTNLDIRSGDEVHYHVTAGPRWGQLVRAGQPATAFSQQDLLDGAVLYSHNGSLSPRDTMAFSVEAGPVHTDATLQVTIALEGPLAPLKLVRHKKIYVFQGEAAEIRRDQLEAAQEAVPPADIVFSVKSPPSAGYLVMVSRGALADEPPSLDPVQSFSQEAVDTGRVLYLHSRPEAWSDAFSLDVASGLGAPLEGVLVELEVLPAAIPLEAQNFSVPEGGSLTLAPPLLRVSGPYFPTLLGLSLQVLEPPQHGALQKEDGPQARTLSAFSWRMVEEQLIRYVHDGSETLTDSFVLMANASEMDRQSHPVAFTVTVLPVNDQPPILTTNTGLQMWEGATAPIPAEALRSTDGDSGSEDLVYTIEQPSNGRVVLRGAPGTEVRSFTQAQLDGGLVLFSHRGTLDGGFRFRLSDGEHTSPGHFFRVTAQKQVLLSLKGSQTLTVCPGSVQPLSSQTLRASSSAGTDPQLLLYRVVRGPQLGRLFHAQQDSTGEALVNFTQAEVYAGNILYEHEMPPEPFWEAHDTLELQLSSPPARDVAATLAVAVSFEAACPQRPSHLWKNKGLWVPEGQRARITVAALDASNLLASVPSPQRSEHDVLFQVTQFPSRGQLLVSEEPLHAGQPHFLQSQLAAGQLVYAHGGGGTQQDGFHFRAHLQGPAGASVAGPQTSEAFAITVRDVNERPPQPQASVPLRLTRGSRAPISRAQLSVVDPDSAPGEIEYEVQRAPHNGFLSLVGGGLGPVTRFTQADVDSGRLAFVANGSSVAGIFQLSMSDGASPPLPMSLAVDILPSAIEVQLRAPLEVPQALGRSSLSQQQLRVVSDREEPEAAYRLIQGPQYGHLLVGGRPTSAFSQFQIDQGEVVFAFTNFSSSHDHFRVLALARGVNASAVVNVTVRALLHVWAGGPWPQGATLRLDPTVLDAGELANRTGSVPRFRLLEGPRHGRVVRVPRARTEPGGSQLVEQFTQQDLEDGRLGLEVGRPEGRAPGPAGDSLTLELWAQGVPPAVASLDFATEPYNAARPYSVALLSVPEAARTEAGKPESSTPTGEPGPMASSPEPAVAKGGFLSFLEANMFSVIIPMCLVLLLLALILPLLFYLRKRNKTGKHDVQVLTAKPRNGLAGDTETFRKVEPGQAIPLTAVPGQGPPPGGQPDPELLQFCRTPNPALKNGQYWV
Experiment: cell-based or functional assay

| Binder | residual tumor cells after coculture of CAR-T cells with CSPG4+ WM115 melanoma cells [%] | residual tumor cells after coculture of CAR-T cells with WM115 (CSPG4+) melanoma cells, E:T 1:5 [%] |
| --- | --- | --- |
| B1 | 10 |  |
| B2 |  | 43.6 |
| B3 |  | 2.2 |
| B4 | 11 |  |

Reference: US20230242666A1
